T1: STK4 (residues 11–326) K59R (human, UniProt Q13043 11-326, K59R)
T1 construct: Monomer-dimer equilibrium in solution; dimer in the crystal; also called STK4 KD; source: E. coli BL21 (DE3), purified (Ni-NTA, SEC)
T1 sequence (looked up): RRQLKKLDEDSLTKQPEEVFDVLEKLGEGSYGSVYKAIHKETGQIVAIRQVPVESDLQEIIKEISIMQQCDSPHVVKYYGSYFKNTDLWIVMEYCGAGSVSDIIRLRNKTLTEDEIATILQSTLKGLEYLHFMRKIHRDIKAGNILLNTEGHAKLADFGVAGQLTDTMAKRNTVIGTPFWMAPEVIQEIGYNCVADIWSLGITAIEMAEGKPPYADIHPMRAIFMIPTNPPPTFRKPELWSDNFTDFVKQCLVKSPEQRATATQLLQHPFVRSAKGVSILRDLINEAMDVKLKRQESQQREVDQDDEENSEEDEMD

T2: STK4 (residues 1–487) K59R (human, UniProt Q13043 1-487, K59R)
T2 construct: The tag could be cut by HRV 3C protease 'if desired'; also called kinase-dead full-length STK4; MST1; source: E. coli BL21 (DE3), purified (Ni-NTA, SEC)
T2 sequence (looked up): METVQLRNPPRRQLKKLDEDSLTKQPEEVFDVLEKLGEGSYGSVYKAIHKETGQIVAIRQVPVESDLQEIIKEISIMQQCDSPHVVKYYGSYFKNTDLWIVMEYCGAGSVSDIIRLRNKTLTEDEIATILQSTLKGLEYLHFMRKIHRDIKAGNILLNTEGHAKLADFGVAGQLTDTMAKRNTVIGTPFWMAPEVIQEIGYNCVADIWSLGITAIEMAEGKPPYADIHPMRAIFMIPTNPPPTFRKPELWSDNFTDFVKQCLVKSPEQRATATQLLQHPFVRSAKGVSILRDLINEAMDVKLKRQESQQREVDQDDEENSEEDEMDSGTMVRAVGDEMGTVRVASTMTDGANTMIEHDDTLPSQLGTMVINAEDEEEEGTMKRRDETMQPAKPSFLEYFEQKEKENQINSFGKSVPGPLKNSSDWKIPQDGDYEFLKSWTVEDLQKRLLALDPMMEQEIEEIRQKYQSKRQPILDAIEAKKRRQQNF

T3: HOIP (residues 697–1072) (UniProt Q96EP0 697-1072)
T3 construct: also called RING1-IBR-RING2-LDD; HOIP RBR-LDD; source: E. coli BL21 (DE3), purified (glutathione resin, SEC)
T3 sequence (looked up): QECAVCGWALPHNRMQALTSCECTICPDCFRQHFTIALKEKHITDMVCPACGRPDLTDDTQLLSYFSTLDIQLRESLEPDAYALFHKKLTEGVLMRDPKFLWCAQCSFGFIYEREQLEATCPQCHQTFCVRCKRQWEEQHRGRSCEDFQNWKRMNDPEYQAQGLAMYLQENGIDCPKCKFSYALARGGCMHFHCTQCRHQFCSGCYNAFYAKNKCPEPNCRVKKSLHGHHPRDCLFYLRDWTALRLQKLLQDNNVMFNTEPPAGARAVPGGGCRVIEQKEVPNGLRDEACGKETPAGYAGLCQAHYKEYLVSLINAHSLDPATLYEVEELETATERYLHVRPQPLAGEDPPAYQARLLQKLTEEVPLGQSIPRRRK

B1: HOIP (residues 854–1072) (domain or fragment, UniProt Q96EP0 854-1072, looked up)
chain: EYQAQGLAMYLQENGIDCPKCKFSYALARGGCMHFHCTQCRHQFCSGCYNAFYAKNKCPEPNCRVKKSLHGHHPRDCLFYLRDWTALRLQKLLQDNNVMFNTEPPAGARAVPGGGCRVIEQKEVPNGLRDEACGKETPAGYAGLCQAHYKEYLVSLINAHSLDPATLYEVEELETATERYLHVRPQPLAGEDPPAYQARLLQKLTEEVPLGQSIPRRRK
notes: also called HOIP RING2-LDD; source: E. coli BL21 (DE3), purified (glutathione resin, SEC)
B2: STK4 (residues 1–326) K59R (domain or fragment, human, UniProt Q13043 1-326, looked up)
chain: METVQLRNPPRRQLKKLDEDSLTKQPEEVFDVLEKLGEGSYGSVYKAIHKETGQIVAIRQVPVESDLQEIIKEISIMQQCDSPHVVKYYGSYFKNTDLWIVMEYCGAGSVSDIIRLRNKTLTEDEIATILQSTLKGLEYLHFMRKIHRDIKAGNILLNTEGHAKLADFGVAGQLTDTMAKRNTVIGTPFWMAPEVIQEIGYNCVADIWSLGITAIEMAEGKPPYADIHPMRAIFMIPTNPPPTFRKPELWSDNFTDFVKQCLVKSPEQRATATQLLQHPFVRSAKGVSILRDLINEAMDVKLKRQESQQREVDQDDEENSEEDEMD
notes: also called KD; source: E. coli BL21 (DE3), purified (Ni-NTA, SEC)
B3: HOIP (residues 697–852) (domain or fragment, UniProt Q96EP0 697-852, looked up)
chain: QECAVCGWALPHNRMQALTSCECTICPDCFRQHFTIALKEKHITDMVCPACGRPDLTDDTQLLSYFSTLDIQLRESLEPDAYALFHKKLTEGVLMRDPKFLWCAQCSFGFIYEREQLEATCPQCHQTFCVRCKRQWEEQHRGRSCEDFQNWKRMND
notes: The limits are printed for the M1-8Ub experiment; for the STK4 experiment the text says only 'the RING1-IBR region of HOIP'; also called HOIP RING1-IBR; RING1-IBR region; source: E. coli BL21 (DE3), purified (glutathione resin, SEC)

What all share (conditions): both partners purified
The target of test [1] is T1, STK4 (residues 11–326) K59R. The test can be described thus: ITC; MicroCal PEAQ-ITC, 25 °C; 20 mM Tris-HCl pH 7.5, 100 mM NaCl, 1 mM DTT; ~50 μM in the cell, ~500 μM in the syringe; one-site binding model. Background: Isothermal titration calorimetry measures the heat released or taken up as one component is titrated into another.
Test [2] concerns the target T2, STK4 (residues 1–487) K59R. Described as above.
Test [3] concerns the target B2. The test can be described thus: SEC; each protein alone and the mixture at matched concentrations on Superdex 200 Increase 10/300 GL or Superdex 75 Increase 10/300 GL; a forward shift or increase of the peak read qualitatively; fractions on SDS-PAGE (Fig. 1c: 20 μM HOIP RING2-LDD, 30 μM STK4 KD, Superdex 75 Increase). (In general: In gel filtration, larger molecules generally elute earlier.)

The target of another test is T3, HOIP (residues 697–1072). The test is described as above.
In a further test the target is T4, M1-8Ub (UniProt P0CG48 1-76; P0CG48 1-76; P0CG48 1-76; P0CG48 1-76; P0CG48 1-76; P0CG48 1-76; …).
T4 construct: ubiquitin, unit 1 of 8, units joined head to tail by peptide bonds (M1-linked); ubiquitin, unit 2 of 8; ubiquitin, unit 3 of 8; ubiquitin, unit 4 of 8; ubiquitin, unit 5 of 8; ubiquitin, unit 6 of 8; ubiquitin, unit 7 of 8; ubiquitin, unit 8 of 8; also called linear octa-ubiquitin; polyubiquitin chain; source: E. coli BL21 (DE3), purified
T4 sequence (P0CG48 1-608, one chain of several): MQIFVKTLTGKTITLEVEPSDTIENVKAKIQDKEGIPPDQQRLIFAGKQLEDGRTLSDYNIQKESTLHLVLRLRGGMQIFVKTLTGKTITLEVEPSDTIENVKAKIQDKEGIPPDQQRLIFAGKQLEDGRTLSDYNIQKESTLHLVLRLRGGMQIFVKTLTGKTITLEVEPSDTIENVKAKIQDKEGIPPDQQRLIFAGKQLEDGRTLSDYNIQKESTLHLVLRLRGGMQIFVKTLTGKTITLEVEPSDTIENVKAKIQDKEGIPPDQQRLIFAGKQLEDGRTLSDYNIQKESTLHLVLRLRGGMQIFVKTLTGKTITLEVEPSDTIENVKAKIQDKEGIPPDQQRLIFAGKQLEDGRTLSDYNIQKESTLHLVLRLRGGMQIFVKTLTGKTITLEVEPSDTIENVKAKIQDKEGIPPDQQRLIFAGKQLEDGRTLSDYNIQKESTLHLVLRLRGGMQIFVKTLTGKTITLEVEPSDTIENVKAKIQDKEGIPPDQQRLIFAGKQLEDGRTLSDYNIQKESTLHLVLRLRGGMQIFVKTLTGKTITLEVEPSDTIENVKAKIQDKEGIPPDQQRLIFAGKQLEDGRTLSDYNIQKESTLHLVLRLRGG
The test is described as above.

As for B1, the binding result in test [1], in test [2] and in test [3] was “binds” each time.
On to B2, for which, in the test with HOIP (residues 697–1072), the binding result is recorded as “binds”.
As for B3, the binding result with M1-8Ub is reported as “binds”.

Values taken from article PMC12441119 (Cell Discovery, 2025).
